{
  "source": "paper PMC3692002",
  "about": "(Proteins, 2011)",
  "biological_target": "the molecule itself",
  "experiment": "static light scattering",
  "data": [
    {"protein": "UgR76, uncharacterized 73 residue domain from Ruminococcus gnavus (domain or fragment) MSEHREGTLFYDTETGRYDIRFDLESFYGGLHCGECFDVKVKDVWVPVRIEMGDDWYLVGLNVSRLDGLRVRMLEHHHHHH", "values": [
      {"measurement": "stoichiometry N", "value": 2}
    ]}
  ]
}
